From publication PMC3204800

Columns and labels:
[1] = molecular target: Third plant homeodomain (PHD3) finger of MLL, residues 1565-1627 (human) (UniProt Q03164); test: ITC
[2] = molecular target: Cyp33 RRM domain (human, UniProt Q9UNP9 1-90); test: NMR
Chain of Cyp33 RRM domain (Q9UNP9 1-90): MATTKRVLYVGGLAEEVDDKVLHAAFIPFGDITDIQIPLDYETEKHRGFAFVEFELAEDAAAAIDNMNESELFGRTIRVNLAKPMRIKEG

Chain of Third plant homeodomain (PHD3) finger of MLL, residues 1565-1627 (human) (Q03164 1565-1627): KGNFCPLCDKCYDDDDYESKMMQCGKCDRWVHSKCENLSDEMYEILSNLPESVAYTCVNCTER

## Cyp33 RRM domain F49A mutant (from UniProt Q9UNP9 1-90) (domain or fragment)
[1]
  fold reduction of affinity against the wild type: 35 fold

## Cyp33 RRM domain L39A mutant (from UniProt Q9UNP9 1-90) (domain or fragment)
[1]
  fold reduction of affinity against the wild type: 10 fold

## RRM domain of human Cyclophilin 33 (Cyp33), residues 1-90 (from UniProt Q9UNP9 1-90) (domain or fragment)
[1]
  Kd: 1.9 µM
  dH: -10 kcal

## AAUAAA (ssRNA) [AAUAAA RNA]
[2]
  Kd: 198 ± 11 µM
